For one molecule, fold change in association rate (ka) against unmutated CH848-d949 results are on record in article PMC10760096.

The experiment deals with CH848-d949 DE3 design SOSIP Env (HIV-1). The experiment is described as follows: SPR.

B1: DH270 lineage intermediate I5.6 Fab (Fab, V domains shown)
VH: QVQLVQSGAEVKKPGASVKVSCKASGYTFTDYYIHWVRQAPGQGLEWMGWINPNTGRTNSAQKFQGRVTMTRDTSISTAYMELSRLRSDDTAVYYCARGGWIGLYYDSSGYPNFDYWGQGTLVTVSS
VL: QSALTQPASVSGSPGQSITISCTGTSYDVGSYNLVSWYQQHPGKAPKLMIYEVSKRPSGVSNRFSGSKSGNTASLTISGLQAEDEADYYCCSYAGSSTVVFGGGTKLTVL
B1 came in with a fold change in association rate (ka) against unmutated CH848-d949 of 45 fold.
